# From PMC5146279, “Atomic structure of the innexin-6 gap junction channel determined by cryo-EM” (Nature Communications, 2016)
# B1: Caenorhabditis elegans innexin-6 (INX-6) wild type (natural protein, UniProt Q9U3N4 1-389, looked up)
# chain: MASQVGAINSVNALISRVFVQPKGDLADRLNSRVTVVILAVSSALLLSSHFIGDPITCWTPAQFNAQWVNFVNQYCFVHGTYFVPLDQQLAFEEEERTKVSIQYYQWVPYVFALQAFLFYIPRFIWKAMIAYSGYDLAAAVKYVDRFWSENRDKDDKFKTRLAAFEGRPSVYIWDGIRLARKKRSRNMALFYTLSTVWQAVNAWIQFYILTQLLDSSIYTLWGPSILGDLLQGNDWQTTGHFPRIVHCDFNRRRPASVQLDTVLCVLTLNIYYEKLFIFLWFWLVFVAVVSTVNCFKWIYYLCNKTKAQKTIKNYLSTAPIKSTISDDQFFSALGEDGLFIMDQMALNLGDIPASYLTISMRNICQDFIESEDYIDEERTPFVKSIKHT
# notes: Innexin-6 (INX-6), C. elegans, wild type; Eight copies form a hemichannel and 16 copies the docked gap junction channel; also called INX-6 WT; INX-6 hemichannel; source: Sf9 cells infected with recombinant virus, purified (Ni-NTA, tag digested, gel filtration, GraDeR); not shown: GFP, C-terminal, cleaved; His8, C-terminal, cleaved; copies: 16
# Legend:
# [1] = biological target: the molecule itself; assay: cryo-EM structure; INX-6 gap junction channel by single-particle analysis, 35,608 particles, D8 symmetry, 3.6 Å; sample after GraDeR, 10 mM Tris pH 7.5, 500 mM NaCl
# [2] = biological target: the molecule itself; assay: cryo-EM structure; INX-6 hemichannel (docked class) by single-particle analysis, 74,398 particles, C8 symmetry, 3.3 Å; sample after GraDeR, 10 mM Tris pH 7.5, 500 mM NaCl
protein,measurement,setting,value
B1,stoichiometry N,[1],16
same,stoichiometry N,[2],8
